Data on one molecule can be found in US20240053350A1.

This experiment has as its target immobilized peptides having F NTAA residue (F-P2 peptides of the 484-peptide P1-P2 array). Put plainly: cell-based or functional assay.

B1: TdT-F4R10 conjugate (designed binder)
chain: GSSHHHHHHGGSSDSPVDLKPKPKVKPKLERPKLYKVMLLNDNSTPGEFVTVVLKAVFRMSEDTGRRVMMTAHRFGSAVVVVSERDIAETKAKEATDLGKEAGFPLMFTTEPEEGAPSGAPSGAPSGAPSGAPSGAPSSPSPVPGSQNVPAPAVKKISQYACQRRTTLNNYNQLFTDALDILAENDELRENEGSCLAFMRASSVLKSLPFPITSMKDTEGIPCLGDKVKSIIEGIIEDGESSEAKAVLNDERYKSFKLFTSVFGVGLKTAEKWFRMGFRTLSKIQSDKSLRFTQMQKAGFLYYEDLVSCVNRPEAEAVSMLVKEAVVTFLPDALVTMTGGFRRGKMTGHDVDFLITSPEATEDEEQQLLHKVTDFWKQQGLLLYCDILESTFEKFKQPSRKVDALDHFQKCFLILKLDHGRVHSEKSGQQEGKGWKAIRVDLVMCPYDRRAFALLGWTGSRQFERDLRRYATHERKMMLDNHALYDRTKRVFLEAESEEEIFAHLGLDYIEPWERNA
On to B1, for which the nucleotides inserted into the recording tag per encoding cycle (nt per encoding cycle) fell in the range of 5 to 8.
